Tests used:
cancer models = conditions: variety of in vitro and in vivo cancer models; cited from earlier work
[1] = system: primary human fibroblasts; conditions: without MYC or KLF4; cited from earlier work
H4R3 = conditions: cited from earlier work
SCNT-generated embryos = conditions: cited from earlier work
[2] = system: mouse embryos obtained from SCNT; assay: CPP-CARM1 protein treatment of 8-cell SCNT embryos; development to blastocyst; assay type: cell-based; conditions: for % of developed to BLs: calculated from 2 cell cleavaged embryos
Method: The above preliminary results were extended in further studies utilizing protein treatment. SCNT oocytes were cultured with protein of CARM1 on third day after formation of fertilized embryo to investigate the influence on the development rate into blastocyst. Specifically, mouse embryos obtained from SCNT were cultured to 8-cell stage in embryo culture medium (potassium simplex-optimized medium, KSOM; Millipore, Danvers, Mass.) containing 10% SPS (Sage, Trumbull, Conn.). And then, 8-cell embryos were cultured at 37° C. and 5% CO2 for 48 h in embryo culture medium with 2 μg/ml CPP-CARM1 recombinant protein or DsRed protein (control—non-functional protein) under mineral oil (Sage). Embryonic development was monitored for a further 2 days. CARM1 or DsRed cDNA was inserted into a pET vector to construct an expression plasmid for CARM1 conjugated to 7× arginine (a cell-penetrating peptide (CPP) domain) and a 6×His-tag. The CPP-CARM1 protein expression vector was transformed into BL21 (DE3) pLysS-competent cells (Stratagene Inc., La Jolla, Calif.). Transformed cells were cultured and induced by 1 mM isopropyl-1-thio-β-D-galactopyranoside (IPTG) for 8 h at 20° C. to produce the CPP-CARM1 or DsRed proteins.

adult stem cells = conditions: cited from earlier work

## CC[C@H](C)n1cc(C)c2c(C(=O)NCc3c(C)cc(C)[nH]c3=O)cc(-c3ccc(N4CCNCC4)nc3)cc21 [GSK126]
Cancer models
  anticancer chemotherapeutic activity: exhibit anticancer chemotherapeutic activity

## CC(C)N(C[C@H]1O[C@@H](n2cnc3c(N)ncnc32)[C@H](O)[C@@H]1O)[C@H]1C[C@@H](CCc2nc3cc(C(C)(C)C)ccc3[nH]2)C1 [EPZ5676]
Cancer models
  anticancer chemotherapeutic activity: exhibit anticancer chemotherapeutic activity

## CCCC(CCC)C(=O)O [Valproic acid]
[1]
  reprogramming with two factors, OCT4 and SOX2: enables the reprogramming

## Nc1ccc(S(=O)(=O)c2ccc(NCN3C(=O)NC(=O)C(=O)C3=O)cc2)cc1 [allantodapsone]
H4R3
  methylation at H4R3: hypomethylation

## Cc1cc(C)c(CNC(=O)c2cc(-c3ccc(CN4CCOCC4)cc3)cc3c2cnn3C2CCCC2)c(=O)[nH]1 [EPZ005687]
Cancer models
  anticancer chemotherapeutic activity: exhibit anticancer chemotherapeutic activity

## CC(/C=C/C(=O)NO)=C\[C@@H](C)C(=O)c1ccc(N(C)C)cc1 [trichostatin A]
SCNT-generated embryos; SCNT-generated embryos
  chromosome decondensation and nuclear volume: increase
SCNT-generated embryos; additive in nuclear transfer
  cloning efficiency: improve cloning efficiency

B1: coactivator-associated arginine methyltransferase 1 (protein, UniProt Q86X55 2-608, looked up)
Histone-arginine …: AAAAAAVGPGAGGAGSAVPGGAGPCATVSVFPGARLLTIGDANGEIQRHAEQQALRLEVRAGPDSAGIALYSHEDVCVFKCSVSRETECSRVGKQSFIITLGCNSVLIQFATPNDFCSFYNILKTCRGHTLERSVFSERTEESSAVQYFQFYGYLSQQQNMMQDYVRTGTYQRAILQNHTDFKDKIVLDVGCGSGILSFFAAQAGARKIYAVEASTMAQHAEVLVKSNNLTDRIVVIPGKVEEVSLPEQVDIIISEPMGYMLFNERMLESYLHAKKYLKPSGNMFPTIGDVHLAPFTDEQLYMEQFTKANFWYQPSFHGVDLSALRGAAVDEYFRQPVVDTFDIRILMAKSVKYTVNFLEAKEGDLHRIEIPFKFHMLHSGLVHGLAFWFDVAFIGSIMTVWLSTAPTEPLTHWYQVRCLFQSPLFAKAGDTLSGTCLLIANKRQSYDISIVAQVDQTGSKSSNLLDLKNPFFRYTGTTPSPPPGSHYTSPSENMWNTGSTYNLSSGMAVAGMPTAYDLSSVIASGSSVGHNNLIPLANTGIVNHTHSRMGSIMSTGIVQGSSGAQGSGGGSTSAHYAVNSQFTMGGPAISMASPMSIPTNTMHYGS
notes: member of the protein arginine methyltransferase (PRMT) family
[2]; Total of three experiments
  No. of developed to BLs: 26
  % of developed to BLs: (38.2) %
[2]; experiment 1
  % of developed to BLs: (46.2) %
[2]; experiment 1, treatment D 3, cumulus donor cell, KSOM
  No. of developed to BLs: 12
[2]; experiment 2
  % of developed to BLs: (40) %
[2]; experiment 2, treatment D 3, cumulus donor cell, KSOM
  No. of developed to BLs: 10
[2]; experiment 3
  % of developed to BLs: (23.5) %
[2]; experiment 3, treatment D 3, cumulus donor cell, KSOM
  No. of developed to BLs: 4
Adult stem cells
  expression of Oct-4, Sox-2 and nanog: upregulated
